Experimental data taken from PMC7385642.
Several values for one entry are separate records, joined by “and”; a condition that tells them apart may be missing. Equal entries are not always repeated.

Assays:
[1] = biological target: YSD1_16, auxiliary protein of phage YSD1 (in the virion) (phage YSD1); assay: cryo-EM structure; single-particle icosahedral reconstruction of the head of purified YSD1 virions (assembled in infected bacteria), 3.8 Å
[2] = biological target: YSD1_17, major capsid protein of phage YSD1 (in the virion) (phage YSD1); assay: as above
[3] = biological target: YSD1_22 delta-HP (residues 45-69 removed and replaced with a glycine) with C-terminal hexa-histidine tag (phage YSD1); assay: SEC-MALS; in-line refractive index and multi-angle laser light scattering (DAWN HELEOS-II, Optilab T-rEX), 25 mM Tris pH 8.0, 200 mM NaCl
[4] = biological target: YSD1_22, tail-tube protein of phage YSD1 (in the virion tail) (phage YSD1); assay: cryo-EM structure; helical reconstruction (C6 symmetry) of the tail tube of purified YSD1 virions (assembled in infected bacteria), 3.5 Å

## YSD1_16, auxiliary protein of phage YSD1 (in the virion) (natural protein)
[1]
  stoichiometry N: 3

## YSD1_17, major capsid protein of phage YSD1 (in the virion) (natural protein)
[2]
  stoichiometry N: 5 and 6

## YSD1_22 delta-HP (residues 45-69 removed and replaced with a glycine) with C-terminal hexa-histidine tag (natural protein)
[3]
  stoichiometry N: 6

## YSD1_22, tail-tube protein of phage YSD1 (in the virion tail) (natural protein)
[4]
  stoichiometry N: 6
